Test results reported in patent US20190177380, “SYNTHETIC MBNL PROTEINS FOR TREATMENT OF REPEAT EXPANSION DISEASE” (University of Florida Research Foundation, Incorporated, published 2019).

Columns and labels:
[1] = target: T1, TRBP dsRBD2 (TARBP2) (Homo sapiens) (UniProt Q15633); conditions: CITED; isolated dsRBD2; cited from earlier work
T1 sequence: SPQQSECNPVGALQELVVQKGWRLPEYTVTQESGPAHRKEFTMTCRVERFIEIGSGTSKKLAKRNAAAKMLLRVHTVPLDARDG

[2] = target: T2, Xlrbpa dsRBD2 (printed Xlbpra) (Xenopus laevis) (UniProt Q91836); conditions: CITED; isolated dsRBD2; cited from earlier work
T2 sequence: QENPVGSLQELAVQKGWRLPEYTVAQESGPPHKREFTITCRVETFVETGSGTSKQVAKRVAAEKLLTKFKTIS

[3] = target: T3, WT-MBNL1 (truncated, aa 1-260 with HA tag and SV40 NLS) (Homo sapiens, UniProt Q9NR56 SEQ:14-272); assay: EMSA; 115 mM NaCl, 20 mM Tris pH 7.5, 5 mM MgCl2, heparin, room temperature; apparent Kd; repeated with another batch in FIG. 10C; conditions: label: 5'-32P; short hairpin (predicted)
T3 chain: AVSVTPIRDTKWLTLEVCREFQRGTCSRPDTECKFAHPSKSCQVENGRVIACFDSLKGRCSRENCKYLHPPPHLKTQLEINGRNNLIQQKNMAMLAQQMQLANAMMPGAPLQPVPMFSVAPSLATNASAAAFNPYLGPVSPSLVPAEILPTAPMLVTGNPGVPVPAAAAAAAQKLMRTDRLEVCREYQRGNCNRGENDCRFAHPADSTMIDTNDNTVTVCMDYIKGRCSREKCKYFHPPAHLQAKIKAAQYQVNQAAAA
Source text: (§1) All synthetic MBNL1 proteins were expressed and purified as N-terminal glutathione S-transferase (GST) fusions (FIG. 4A). These proteins were then used in electrophoretic mobility shift assays (EMSAs) with CUG₄ RNA substrate. The fraction of radiolabeled RNA bound to the protein was used to determine an apparent KD (dissociation constant). […] (FIG. 4B).
(§2) All RNA substrates were ordered from IDT (Coralville, Iowa) or Dharmacon (Lafayette, Colo.) and 5′ end-labelled using T4 PNK (NEB, Ipswich, Mass.) with [γ-³²P] ATP. All RNAs were purified on 10% polyacrylamide denaturing gels. Prior to incubation with protein, these RNAs were denatured by incubation at 95° C. for 2 minutes followed by a 5 minute incubation on ice. Once cooled the RNA was mixed with increasing concentrations of protein (final volume=10 μl) to yield final reaction conditions of 115 mM NaCl, 20 mM Tris pH 7.5, 1 mM β-ME, 0.01 mM EDTA, 10% glycerol, 5 mM MgCl₂, 0.1 mg/ml heparin, 2 mg/ml bovine serum albumin (BSA), and 0.02% xylene cyanol. […] Binding curves were quantified using ImageQuant software (GE Healthcare Life Sciences, Pittsburgh, Pa.). The fraction of RNA bound was calculated as the ratio of all RNA-protein complexes divided by total RNA signal in each lane. The apparent Kd was then determined using the following equation: fbound=fₘₐₓ([MBNL1]/([MBNL1+Kd)).

MBNL1(1-2,1-2) = target: T4, MBNL1(1-2,1-2) (Homo sapiens); assay: EMSA; 115 mM NaCl, 20 mM Tris pH 7.5, 5 mM MgCl2, heparin, room temperature; apparent Kd; conditions: label: 5'-32P; short hairpin (predicted)
T4 chain: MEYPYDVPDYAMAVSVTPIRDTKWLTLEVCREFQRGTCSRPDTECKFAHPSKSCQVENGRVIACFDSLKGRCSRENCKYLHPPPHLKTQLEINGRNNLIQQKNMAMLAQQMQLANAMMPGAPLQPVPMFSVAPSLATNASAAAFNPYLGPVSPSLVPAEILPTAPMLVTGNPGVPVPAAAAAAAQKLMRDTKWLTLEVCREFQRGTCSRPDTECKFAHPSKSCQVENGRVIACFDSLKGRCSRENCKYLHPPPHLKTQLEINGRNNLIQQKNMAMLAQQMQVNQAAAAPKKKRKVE
Source text: as §1, §2

MBNL1(3-4,3-4) = target: T5, MBNL1(3-4,3-4) (Homo sapiens); assay: as above; conditions: label: 5'-32P; short hairpin (predicted)
T5 chain: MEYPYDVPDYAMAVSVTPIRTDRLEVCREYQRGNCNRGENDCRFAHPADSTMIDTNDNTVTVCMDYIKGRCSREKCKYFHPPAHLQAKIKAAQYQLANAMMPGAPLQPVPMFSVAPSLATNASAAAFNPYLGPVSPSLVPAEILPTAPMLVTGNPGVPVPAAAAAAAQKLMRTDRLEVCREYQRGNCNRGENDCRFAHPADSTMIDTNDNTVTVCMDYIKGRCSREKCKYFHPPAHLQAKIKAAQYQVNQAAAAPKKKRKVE
Source text: as §1, §2

## HIV TAR RNA
[1]
  Kd: 0.059 µM

## 30 bp synthetic dsRNA
[2]
  Kd: 0.011 µM

## GCUGCUGUUCGCUGCUG (ssRNA) [CUG4]
[3]
  Kd: 0.196 µM
MBNL1(1-2,1-2)
  Kd: 0.269 µM
MBNL1(3-4,3-4)
  Kd: 0.257 µM
